Experimental data reported in the supplement of paper PMC10567573.

B1: PSD2 (parent)
chain: LTHFSRRYCQCNPDDSTSEDGIHT

Variants of: B1
Assay: protein stability index of a GFP-peptide fusion (GPS, HEK-293T) (PSI 1-6); higher = more stable
Settings: c terminus: a fixed tail appended
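Also: lentivirally expressed fusions sorted by FACS into six bins by GFP to DsRed ratio, PSI derived from sequencing read proportions per bin multiplied by bin number.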

Row | Variant | protein stability index
1 | LTHFSRRYCQTNPDDSTSEDGIHT [C11T] | 4.31
2 | LTHFSRRYCQQNPDDSTSEDGIHT [C11Q] | 4.71
3 | LTHFSRRYCQLNPDDSTSEDGIHT [C11L] | 3.65
4 | LTHFSRRYCQGNPDDSTSEDGIHT [C11G] | 4.56
5 | LTHFSRRYCQFNPDDSTSEDGIHT [C11F] | 3.12
6 | LTHFSRRYCQMNPDDSTSEDGIHT [C11M] | 3.84
7 | LTHFSRRYCQANPDDSTSEDGIHT [C11A] | 4.22
8 | LTHFSRRYCQRNPDDSTSEDGIHT [C11R] | 4.18
9 | LTHFSRRYCQPNPDDSTSEDGIHT [C11P] | 4.41
10 | LTHFSRRYCQENPDDSTSEDGIHT [C11E] | 4.38
11 | LTHFSRRYCQDNPDDSTSEDGIHT [C11D] | 4.31
12 | LTHFSRRYCQYNPDDSTSEDGIHT [C11Y] | 3.74
13 | LTHFSRRYCQNNPDDSTSEDGIHT [C11N] | 4.41
14 | LTHFSRRYCQVNPDDSTSEDGIHT [C11V] | 4.5
15 | LTHFSRRYCQINPDDSTSEDGIHT [C11I] | 4.31
16 | LTHFSRRYCQSNPDDSTSEDGIHT [C11S] | 4.61
17 | LTHFSRRYCQKNPDDSTSEDGIHT [C11K] | 4.52
18 | LTHFSRRYCQHNPDDSTSEDGIHT [C11H] | 4.17
19 | LTHFSRRYCQCNPDDVTSEDGIHT [S16V] | 3.15
20 | LTHFSRRYCQCNPDDNTSEDGIHT [S16N] | 3.06
21 | LTHFSRRYCQCNPDDATSEDGIHT [S16A] | 2.57
22 | LTHFSRRYCQCNPDDYTSEDGIHT [S16Y] | 2.88
23 | LTHFSRRYCQCNPDDHTSEDGIHT [S16H] | 2.95
24 | LTHFSRRYCQCNPDDPTSEDGIHT [S16P] | 2.86

Row | Variant | protein stability index
25 | LTHFSRRYCQCNPDDCTSEDGIHT [S16C] | 2.75
26 | LTHFSRRYCQCNPDDETSEDGIHT [S16E] | 3.96
27 | LTHFSRRYCQCNPDDMTSEDGIHT [S16M] | 2.64
28 | LTHFSRRYCQCNPDDTTSEDGIHT [S16T] | 2.94
29 | LTHFSRRYCQCNPDDLTSEDGIHT [S16L] | 3.15
30 | LTHFSRRYCQCNPDDRTSEDGIHT [S16R] | 2.61
31 | LTHFSRRYCQCNPDDFTSEDGIHT [S16F] | 2.77
32 | LTHFSRRYCQCNPDDKTSEDGIHT [S16K] | 3.48
33 | LTHFSRRYCQCNPDDITSEDGIHT [S16I] | 3.18
34 | LTHFSRRYCQCNPDDGTSEDGIHT [S16G] | 3.09
35 | LTHFSRRYCQCNPDDWTSEDGIHT [S16W] | 1.77
36 | LTHFSRRYCQCNPDDDTSEDGIHT [S16D] | 3.17
37 | LTHFSRRYCQCNPDDQTSEDGIHT [S16Q] | 3.82
38 | LTHFSRQYCQCNPDDSTSEDGIHT [R7Q] | 4.57
39 | LTHFSRVYCQCNPDDSTSEDGIHT [R7V] | 3.13
40 | LTHFSRYYCQCNPDDSTSEDGIHT [R7Y] | 2.92
41 | LTHFSRHYCQCNPDDSTSEDGIHT [R7H] | 3.8
42 | LTHFSRWYCQCNPDDSTSEDGIHT [R7W] | 2.32
43 | LTHFSRLYCQCNPDDSTSEDGIHT [R7L] | 3.74
44 | LTHFSRIYCQCNPDDSTSEDGIHT [R7I] | 3.64
45 | LTHFSRKYCQCNPDDSTSEDGIHT [R7K] | 3.53
46 | LTHFSRPYCQCNPDDSTSEDGIHT [R7P] | 4.46
47 | LTHFSRSYCQCNPDDSTSEDGIHT [R7S] | 3.51
48 | LTHFSRNYCQCNPDDSTSEDGIHT [R7N] | 3.75

Row | Variant | protein stability index
49 | LTHFSRTYCQCNPDDSTSEDGIHT [R7T] | 4.01
50 | LTHFSRGYCQCNPDDSTSEDGIHT [R7G] | 2.93
51 | LTHFSRMYCQCNPDDSTSEDGIHT [R7M] | 3.84
52 | LTHFSRRYCQCNPDYSTSEDGIHT [D15Y] | 3.23
53 | LTHFSRRYCQCNPDRSTSEDGIHT [D15R] | 2.63
54 | LTHFSRRYCQCNPDTSTSEDGIHT [D15T] | 2.79
55 | LTHFSRRYCQCNPDKSTSEDGIHT [D15K] | 2.28
56 | LTHFSRRYCQCNPDMSTSEDGIHT [D15M] | 3.21
57 | LTHFSRRYCQCNPDNSTSEDGIHT [D15N] | 2.41
58 | LTHFSRRYCQCNPDFSTSEDGIHT [D15F] | 3.21
59 | LTHFSRRYCQCNPDCSTSEDGIHT [D15C] | 2.91
60 | LTHFSRRYCQCNPDASTSEDGIHT [D15A] | 2.69
61 | LTHFSRRYCQCNPDWSTSEDGIHT [D15W] | 2.14
62 | LTHFSRRYCQCNPDPSTSEDGIHT [D15P] | 2.46
63 | LTHFSRRYCQCNPDGSTSEDGIHT [D15G] | 2.61
64 | LTHFSRRYCQCNPDVSTSEDGIHT [D15V] | 2.47
65 | LTHFSRRYCQCNPDISTSEDGIHT [D15I] | 2.1
66 | LTHFSRRYCQCNPDLSTSEDGIHT [D15L] | 2.26
67 | LTHFSRRYCQCNPDESTSEDGIHT [D15E] | 4.1
68 | LTHFSRRYCQCNPDHSTSEDGIHT [D15H] | 2.86
69 | LTHFSRRYCQCNPDQSTSEDGIHT [D15Q] | 2.35
70 | LTHFSRRYCQCNPDSSTSEDGIHT [D15S] | 2.96
71 | LTHFSRRYCQCEPDDSTSEDGIHT [N12E] | 4
72 | LTHFSRRYCQCWPDDSTSEDGIHT [N12W] | 3.13

Row | Variant | protein stability index
73 | LTHFSRRYCQCPPDDSTSEDGIHT [N12P] | 3.63
74 | LTHFSRRYCQCKPDDSTSEDGIHT [N12K] | 3.37
75 | LTHFSRRYCQCIPDDSTSEDGIHT [N12I] | 2.77
76 | LTHFSRRYCQCFPDDSTSEDGIHT [N12F] | 2.69
77 | LTHFSRRYCQCRPDDSTSEDGIHT [N12R] | 3.21
78 | LTHFSRRYCQCHPDDSTSEDGIHT [N12H] | 3.67
79 | LTHFSRRYCQCYPDDSTSEDGIHT [N12Y] | 2.39
80 | LTHFSRRYCQCVPDDSTSEDGIHT [N12V] | 3.11
81 | LTHFSRRYCQCTPDDSTSEDGIHT [N12T] | 3.69
82 | LTHFSRRYCQCGPDDSTSEDGIHT [N12G] | 2.83
83 | LTHFSRRYCQCLPDDSTSEDGIHT [N12L] | 2.96
84 | LTHFSRRYCQCCPDDSTSEDGIHT [N12C] | 2.82
85 | LTHFSRRYCQCSPDDSTSEDGIHT [N12S] | 4.01
86 | LTHFSRRYCQCQPDDSTSEDGIHT [N12Q] | 3.13
87 | LTHFSRRYCQCAPDDSTSEDGIHT [N12A] | 3.34
88 | LTHFSRRYCQCMPDDSTSEDGIHT [N12M] | 3.52
89 | LTHFSRRYCQCDPDDSTSEDGIHT [N12D] | 4.66
90 | LTHFSRRYQQCNPDDSTSEDGIHT [C9Q] | 5.06
91 | LTHFSRRYPQCNPDDSTSEDGIHT [C9P] | 4.64
92 | LTHFSRRYMQCNPDDSTSEDGIHT [C9M] | 4.16
93 | LTHFSRRYSQCNPDDSTSEDGIHT [C9S] | 4.78
94 | LTHFSRRYVQCNPDDSTSEDGIHT [C9V] | 4.13
